According to PMC5429843:

Experiments:
His186 = His186 (UniProt position 186, ITVKQHTVTTT); test: NMR; conditions: 20 °C, not stated (36 mM sodium phosphate + 36 mM sodium citrate, no added salt stated), folded RaPrP90-231, 1 mM
His187 = His187 (UniProt position 187, ITIKQHTVTTT); test: NMR; conditions: 20 °C, not stated (36 mM sodium phosphate + 36 mM sodium citrate, no added salt stated), folded GHaPrP90-231, 1 mM

Row | Substance | pKa (His186) | pKa (His186; oxidised disulfide) | pKa (His187) | pKa (His187; oxidised disulfide. Progressive loss of amide dispersion and peak inhomogeneity near pH 5.)
1 | Major prion protein, C-terminal domain (RaPrP90-231) (Oryctolagus cuniculus (rabbit)) | 5.1 | 5.1 ± 0.1 | – | –
2 | Major prion protein, C-terminal domain (GHaPrP90-231) (Mesocricetus auratus (golden/Syrian hamster)) | – | – | 4.9 ± 0.2 | 4.9 ± 0.1
